The source of these data is publication PMC11399261 (Nature Communications, 2024).

One assay concerns the target Cdt1-Mcm2-7 heptamer (S. cerevisiae, UniProt P47112;P29469;P24279;P30665;P29496;P53091;P38132). The assay is described as follows: pull-down.
Assay [1] deals with origin recognition complex (ORC), wild type (S. cerevisiae, UniProt P54784;P32833;P54790;P54791;P50874;P38826). Description: MCM loading assay on DNA beads.
The target of assay [2] is Orc2-ΔN175 containing ORC (S. cerevisiae, UniProt P54784;P32833;P54790;P54791;P50874;P38826). Description: MCM loading assay on DNA beads.
Assay [3] deals with Orc2-ΔN200 containing ORC (S. cerevisiae, UniProt P54784;P32833;P54790;P54791;P50874;P38826). Description: MCM loading assay on DNA beads.
Assay [4] addresses Orc2-I194E containing ORC (S. cerevisiae, UniProt P54784;P32833;P54790;P54791;P50874;P38826, I194E). Description: MCM loading assay on DNA beads.

B1: GST-Orc2N200-I194E (domain or fragment)
chain: MLNGEDFVEHNDILSSPAKSRNVTPKRVDPHGERQLRRIHSSKKNLLERISLVGNERKNTSPDPALKPKTPSKAPRKRGRPRKIQEELTDRIKKDEKDTISSKKKRKLDKDTSGNVNEESKTSNNKQVMEKTGIKEKREREKIQVATTTYEDNVTPQTDDNFVSNSPEPPEPATPSKKSLTTNHDFTSPLKQIEMNNLKE
Regarding B1, the binding result in the assay with Cdt1-Mcm2-7 heptamer is recorded as “binds”.

B2: His-SUMO-Cdc6 (natural protein)
chain: MSAIPITPTKRIRRNLFDDAPATPPRPLKRKKLQFTDVTPESSPEKLQFGSQSIFLRTKALLQKSSELVNLNSSDGALPARTAEYEQVMNFLAKAISEHRSDSLYITGPPGTGKTAQLDMIIRQKFQSLPLSLSTPRSKDVLRHTNPNLQNLSWFELPDGRLESVAVTSINCISLGEPSSIFQKIFDSFQDLNGPTLQIKNMQHLQKFLEPYHKKTTFVVVLDEMDRLLHANTSETQSVRTILELFLLAKLPTVSFVLIGMANSLDMKDRFLSRLNLDRGLLPQTIVFQPYTAEQMYEIVIQKMSSLPTIIFQPMAIKFAAKKCAGNTGDLRKLFDVLRGSIEIYELEKRFLLSPTRGSLNSAQVPLTPTTSPVKKSYPEPQGKIGLNYIAKVFSKFVNNNSTRTRIAKLNIQQKLILCTIIQSLKLNSDATIDESFDHYIKAITKTDTLAPLQRNEFLEICTILETCGLVSIKKTKCKGKTKRFVDKIDVDLDMREFYDEMTKISILKPFLH
On to B2, for which the binding result in assay [1], in assay [2], in assay [3] and in assay [4] was “binds” in each case.
